Test results as given in patent publication US5705609A, “Decorin fragments inhibiting cell regulatory factors” (La Jolla Cancer Research Foundation, priority 1995, dated 1998).

Legend:
CHO cells = assay: [3H]thymidine incorporation (growth) in CHO cells; assay type: cell-based; conditions: TGFβ-1 at 5 ng/ml
Experimental: (§1) The ability of decorin to modulate the activity of TGFβ-1 was examined in [^3 H]thymidine incorporation assays. In one assay, an unamplified CHO cell line transfected only with pSV2dhfr (control cell line A in reference 1, called CHO cells here) was used. The cells were maintained in nucleoside-free alpha-modified minimal essential medium (e-MEM, GIBCO, Long Island, N.Y.) supplemented with 9% dialyzed fetal calf serum (dFCS) and [^3 H]thymidine incorporation was assayed as described (Cheifetz et al., Cell 48:409-415 (1987)). TGFβ-1 was added to the CHO cell cultures at 5 ng/ml. At this concentration, it induced a 50% increase of [^3 H]thymidine incorporation in these cells. Decorin or BSA was added to the medium at different concentrations. The data represent percent neutralization of the TGFβ-1-induced growth stimulation, i.e., [^3 H]thymidine incorporation, in the absence of either TGFβ-1 or decorin=0%, incorporation in the presence of TGFβ-1 but not decorin=100%. […] Decorin (.circle-solid.) BSA (.largecircle.).
This was shown by gel filtration of the DEAE-isolated decorin under dissociating conditions. […] The fractions were analyzed by SDS-PAGE, decorin ELISA and cell growth assays, all described above. […] Shown are the ability of the gel filtration fractions to affect [^3 H]-thymidine incorporation by the CHO cells and the concentration of decorin as determined by enzyme immunoassay. […]

Mv1Lu cells = assay: [3H]thymidine incorporation (growth) in Mv1Lu mink lung epithelial cells; assay type: cell-based; conditions: TGFβ-1 at 0.5 ng/ml
Experimental: Assay was performed as in FIG. 4A, except that TGFβ-1 was added at 0.5 ng/ml. This concentration of TGFβ induces 50% reduction of [^3 H]-thymidine incorporation in the Mv1Lu cells. The data represent neutralization of TGFβ-induced growth inhibition; i.e., [^3 H]-thymidine incorporation in the presence of neither TGFβ or decorin=100%; incorporation in the presence of TGFβ but not decorin=0%. […] This was shown by gel filtration of the DEAE-isolated decorin under dissociating conditions. […] The fractions were analyzed by SDS-PAGE, decorin ELISA and cell growth assays, all described above. Three protein peaks were obtained. […] Shown are the ability of the gel filtration fractions to affect [^3 H]-thymidine incorporation by the CHO cells and the concentration of decorin as determined by enzyme immunoassay. Shown also (arrows) are the elution positions of molecular size markers: BSA, bovine serum albumin (Mr=66,000); CA, carbonic anhydrase (Mr=29,000); Cy, cytochrome c (Mr=12,400); AP, aprotinin (Mr=6,500); TGF, [^125 I]TGFβ-1 (Mr=25,000).

TGFβ-1 [1] = biological target: T1, TGFβ-1 (Homo sapiens, UniProt P01137)
TGFβ-1 [2] = biological target: TGFβ-1 (Homo sapiens (Human), UniProt P01137, 125I label in most assays (chloramine T method in Example II; Bolton-Hunter labeled in Example VI); unlabeled in the experiment of Table I and in the growth assays); assay: soluble peptide competitor of 125I-TGF-β binding to immobilized decorin
Experimental: The wells were placed in a 37° C. incubator overnight and thereafter washed 3 times with 200 µl PBS (0.15M NaCl) per well to remove unbound decorin.
Following the incubation, 50 µl of the free TGF-β supernatants were transferred to labeled tubes. The plate was washed 3 times with 0.05% Tween-20 in PBS (200 µl/well). The wells were then transferred into tubes for counting in a gamma counter.

TGF-β [3] = biological target: T2, TGF-β (Homo sapiens, UniProt P01137); assay: Binding of 125I-TGF-β to HepG2 cells; conditions: 250 pM [125I]TGF-β, 2 hours room temperature
Experimental: (§2) About 2.5×10^4 HepG2 cells or L-M(tk-) cells were incubated with 250 pM[^125 I]TGF-β in the presence of recombinant human decorin (DC-12), PT-71 (MBP), decorin fragments (PT-72, -73, -84, -85, -86 and -87) or anti-TGF-β antibodies for 2 hours at room temperature. Cells were washed with washing buffer (128 mM NaCl, 5 mM KCl, 5 mM […], 1.2 mM CaCl2, 50 mM HEPES, pH 7.5) four times before determination of bound CPM.

TGF-β [4] = biological target: T2, TGF-β; assay: Binding of 125I-TGF-β to L-M(tk-) cells; conditions: 250 pM [125I]TGF-β, 2 hours room temperature; proteins
Experimental: as §2
The activity of the peptides was evaluated using the L-M(tk-) TGFβ1 binding inhibition assay described in Example VII, except various concentrations of peptide were incubated with the cells and TGFβ1 instead of decorin and recombinant decorin fragments. The negative control was a synthetic peptide corresponding to the first 15 amino acids of decorin, which has the sequence […](SEQ ID NO. 21).

TGFβ-1 [5] = biological target: T1, TGFβ-1; assay: Microtiter binding assay: [125I]-TGFβ-1 binding to decorin-coated wells and competition; parameters: contains a major band at 25 kd; This band represents the native TGFβ-1 dimer; purchased Calbiochem, La Jolla, Calif; conditions: intact proteoglycans, 37° C. 4 hours (FIG. 3A)
Experimental: The binding of TGFβ-1 to decorin was also examined in a microtiter binding assay. To perform the assay, the wells of a 96-well microtiter plate were coated overnight with 2μg/ml of recombinant decorin in 0.1M sodium carbonate buffer, pH 9.5. The wells were washed with PBS containing 0.05% Tween (PBS/Tween) and samples containing 5×10^4 cpm of [^125 I]-TGFβ-1 and various concentrations of competitors in PBS/Tween were added to each well. The plates were then incubated at 37° C. for 4 hours (at 4° C. overnight in experiments with chondroitinase ABC-digested proteoglycans), washed with PBS/Tween and the bound radioactivity was solubilized with 1% SDS in 0.2M NaOH. Total binding without competitors was about 4% under the conditions used. Nonspecific binding, determined by adding 100-fold molar excess of unlabeled TGFβ-1 over the labeled TGFβ-1 to the incubation mixture, was about 13% of total binding. This assay was also used to study the ability of other decorin preparations and related proteins to compete with the interaction.
Decorin isolated from bovine skin and biglycan isolated from bovine articular cartilage (PGI and PGII, obtained from Dr. Lawrence Rosenberg, Monteflore Medical Center, N.Y.; and described in Rosenberg et al., J. Biol. Chem. 250:6304-6313, (1985), incorporated by reference herein), chicken cartilage proteoglycan (provided by Dr. Paul Goetinck, La Jolla Cancer Research Foundation, La Jolla, Calif., and described in Goetinck, P. F., in THE GLYCOCONJUGATES, Vol. III, Horwitz, M. I., Editor, pp. 197-217, Academic Press, NY). For the preparation of core proteins, proteoglycans were digested with chondroitinase ABC (Seikagaku, Tokyo, Japan) by incubating 500 μg of proteoglycan with 0.8 units of chondroitinase ABC in 250 μl of 0.1M Tris/Cl, pH 8.0, 30 mM sodium acetate, 2 mM PMSF, 10 mM N-ethylmalelmide, 10 mM EDTA, and 0.36 mM pepstatin for 1 hour at 37° C. Recombinant decorin and decorin isolated from bovine skin (PGII) inhibited the binding of [^125 I]-TGFβ-1, as expected (FIG. 3A). […] This notion was further supported by competition experiments with the mutated decorin core protein (not shown) and chondroitinase ABC-digested decorin and biglycan (FIG.3B). Each of these proteins was inhibitory, whereas cartilage proteoglycan core protein was not.
Target sequence in this assay (P01137 279-390 limits assumed, species assumed): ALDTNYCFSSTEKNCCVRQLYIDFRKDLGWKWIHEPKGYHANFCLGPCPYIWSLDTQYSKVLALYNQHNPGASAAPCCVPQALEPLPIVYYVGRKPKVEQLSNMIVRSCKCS

TGFβ-1 [6] = biological target: T1, TGFβ-1; assay: [3H]thymidine incorporation assay: neutralization of TGFβ-1-induced growth stimulation in CHO cells; assay type: cell-based; parameters: contains a major band at 25 kd; This band represents the native TGFβ-1 dimer; purchased Calbiochem, La Jolla, Calif
Experimental: as §1
Target sequence in this assay (P01137 279-390 limits assumed, species assumed): as above
IgG from a normal rabbit serum had no effect in the assay (.largecircle.).

TGFβ-1 [7] = biological target: T1, TGFβ-1; assay: [3H]thymidine incorporation assay: neutralization of TGFβ-1-induced growth inhibition in Mv1Lu cells; assay type: cell-based, mink; parameters: contains a major band at 25 kd; This band represents the native TGFβ-1 dimer; conditions: TGFβ-1 0.5 ng/ml
Experimental: Assay was performed as in FIG. 4A, except that TGFβ-1 was added at 0.5 ng/ml. This concentration of TGFβ induces 50% reduction of [^3 H]-thymidine incorporation in the Mv1Lu cells. The data represent neutralization of TGFβ-induced growth inhibition; i.e., [^3 H]-thymidine incorporation in the presence of neither TGFβ or decorin=100%; incorporation in the presence of TGFβ but not decorin=0%.
Target sequence in this assay (P01137 279-390 limits assumed, species assumed): as above

T2 sequence (P01137 279-390 limits assumed): as the sequence (P01137 279-390 limits assumed, species assumed) above

Molecule: TGFβ-1: commercially obtained transforming growth factor β-1
- increase of [3H]thymidine incorporation (CHO cells): 50%
- reduction of [3H]-thymidine incorporation (Mv1Lu cells): 50%

Molecule: recombinant human decorin (from UniProt P07585)
- 3H-thymidine incorporation in CHO cells stimulated with 5 ng/ml TGFβ-1, half maximal neutralization (TGFβ-1 [1]): 5 µg/mL

Molecule: HLRVVQCSDLGL [peptide 16G]
- binding result (TGFβ-1 [2]): binds

B1: Recombinant human decorin: recombinant human decorin (DC-12) (protein)
chain: DEASGIGPEVPDDRDFEPSLGPVCPFRCQCHLRVVQCSDLGLDKVPKDLPPDTTLLDLQNNKITEIKDGDFKNLKNLHALILVNNKISKVSPGAFTPLVKLERLYLSKNQLKELPEKMPKTLQELRAHENEITKVRKVTFNGLNQMIVIELGTNPLKSSGIENGAFQGMKKLSYIRIADTNITSIPQGLPPSLTELHLDGNKISRVDAASLKGLNNLAKLGLSFNSISAVDNGSLANTPHLRELHLDNNKLTRVPGGLAEHKYIQVVYLHNNNISVVGSSDFCPPGHNTKKASYSGVSLFSNPVQYWEIQPSTFRCVYVRSAIQLGNYK
modifications: single glycosaminoglycan chain of a chondroitin sulfate/dermatan sulfate type on serine-4
- inhibition of 125I-TGF-β binding to HepG2 cells (TGF-β [3]): inhibited
- inhibition of 125I-TGF-β binding to L-M(tk-) cells (TGF-β [4]): inhibited

B2: Decorin: recombinant decorin proteoglycan purified from transfected CHO cell media (protein)
chain: B1 chain
modifications: single glycosaminoglycan chain of a chondroitin sulfate/dermatan sulfate type on serine-4
notes: recombinant decorin proteoglycan purified from transfected CHO cell media
- inhibition of [125I]-TGFβ-1 binding to decorin-coated wells (TGFβ-1 [5]): inhibited
- half maximal activity, neutralization of growth stimulatory activity of TGFβ-1 (TGFβ-1 [6]; TGFβ-1 5 ng/ml): about 5 μg/ml
- [3H]-thymidine incorporation with additional decorin (TGFβ-1 [6]; higher decorin concentrations): suppressed the [^3 H]-thymidine incorporation below the level observed without any added TGFβ-1
- effect on TGFβ-1-induced growth inhibition (TGFβ-1 [7]): revealed an effect by decorin on the activity of TGFβ-1
